The values below come from the DeepSol protein solubility set.

A short description of this data set: soluble on expression in E. coli; label from the status in PepcDB or PDB records.
As to “MGSDKIHHHHHHMATLKRIWLALNPQEAAAWQALLTTAGLAADRQVDYTVGIFEGETLLATGSLSGNIIKEVAVTPATQHENLLAQVIQALLDRLDDDGVTHSFVYTKPTTVKFFLSLGFKQLAATDAVVLLERGYPNLTDYVASLEKQRRPEKPAAAIVMNANPITRGHAYLIETAAKVNPVVYVFVLSAERSLFTADERLALVRKVAARWPNVVVLPTNDYMVSNTTFPSYFLKERADADVAAVQARLDAALFKQAIAPVLGITRRYVGEEPLSPVTAIYNRELAATFGSAIELIVVPRLMIDGDVVSATRVRAAMAQQDWKTVQQLVYPEVYQEIKERSTHGN”, the “soluble on expression in E. coli” value is “not soluble”.
To “MGSDKIHHHHHHMAKRKVPPEFVVERDDYKCIRCLACVRVCSYGANFYDENANRVYTENTKCVGCHFCEAICPTEAITVRKNDFDIRPLAHWTPEHLIGIMKQAETGGVLLTSMGNDRPYFSYFDRIVLNASQVTNPSIDPLREPMEIRTYIGRKEEKLEIEEDEDGTVKLKTEIAPQLKLEVPVMFTAMSYGSISLNAILSLARAARTVGTFFNTGEGGLPKELREFKDNMIVQVASGRFGVSADYLNAGSAVEIKIGQGAKPGIGGHLPGEKVTEPISETRMIPVGTDALSPAPHHDIYSIEDLRQLIYAIKEATRYEKPVGVKIAAVHNVAPIAAGAVRAGADYIVIDGIRGGTGAAPKITRDHVGIPIEFAVAVVDQRLREEGIRHMASIVVAGGIRNSADVIKAIALGADAVYIGTAALISLGCHLCQTCYLGKCNWGIATQDPKLTKRLNPEIGARRAANLLRAWAHEIKEILGGMGINAIESLRGNREVLRGVGLHEYELKLLGIKPAGEAW” belongs “not soluble”; to “VDICNHALLVGFGRVGSLLGEKLMAQGIPLVVVETSRTRVDELRERGISAVLGNAANEEIMELAHLDCARWLLLTIPNGYEAGEIVASAREKCPNIEIIARAHYDDEVDYIIDRGANQVVMGEREIARAMLRLLETPPAG”, “not soluble”.
Regarding “MSLEPSVTGPSEAPVLDTAWMKAVPSVRPVPAGSAAEALEALAVKGRAADDSYERTAFGQAWLDVDRNGCDTRNDILRRDLAGVQFTEGSRCRVAGGEFHEPYTGAVVTFTRGAESSKAVQIDHVVALGDAWQKGAQQLTPQQRQSLANDPLNLVAADGPANQEKSASDAASWLPKNKTFRCHYVARQISVKAAYGLWVTQPEKDAMKRVLDSCPQQQTVMPREGHHHHHH”, the “soluble on expression in E. coli” value is recorded as “soluble”.
For “MKPWLITPERLTSEQIGLLDHFFDRGLERLHLRLPSAGEEDYSQVIEAVAACYRRRIVVHDHPRLVGRYGLCGLHLPERVWKGMTDRPQLPDGCTVSASCHAIEDIESFPFRLDYCFLSPVFDSLCKVGYAGRFSPDS”, the “soluble on expression in E. coli” value is given as “not soluble”.
“SQPLLDRSIPDFTAFTTVDDWLSAIKMVQYRDSFLTAGFTSLQLVTQMTSEDLLRIGITLAGHQKKILNSIHSMRVQISQSPTAMA”: the “soluble on expression in E. coli” value is “soluble”.
To “MYFKMITSAPWVLYPEIGEDPSKKWIFREPKISDGDGIYSLIADCPPLDMNSSYCNFLQSTHFSKTSILVEHKGDIAGFISGYQKPDEQDVLFIWQVAVSPRFRGNGLAFRMLKELLEREALSEVKSVETTITEDNQASWALFKKLDAMNGNHGQVSTFLDEKAHFKGKHDTEFLYRIPLK” belongs “not soluble”.
“MEITNVNEYEAIAKQKLPKMVYDFYASGAEDQWTLAENRNAFSRILFRPRILIDVTNIDMTTTILGFKISMPIMIAPTAMQKMAHPEGEYATARAASAAGTIMTLSSWATSSVEEVASTGPGIRFFQLYVYKDRNVVAQLVRRAERAGFKAIALTVDTPRLGRREADIKNRFVLPPFLTLKNFEGIDLGKMDKANDSGLSSYVAGQIDRSLSWKDVAWLQTITSLPILVKGVITAEDARLAVQHGAAGIIVSNHGARQLDYVPATIMALEEVVKAAQGRIPVFLDGGVRRGTDVFKALALGAAGVFIGRPVVFSLAAEGEAGVKKVLQMMRDEFELTMALSGCRSLKEISRSHIAADWDGPSSRAVARL”: the “soluble on expression in E. coli” value was “soluble”.
Consider “MASPLRFDGRVVLVTGAGGGLGRAYALAFAERGALVVVNDLGGDFKGVGKGSSAADKVVEEIRRRGGKAVANYDSVEAGEKLVKTALDTFGRIDVVVNNAGILRDRSFSRISDEDWDIIQRVHLRGSFQVTRAAWDHMKKQNYGRIIMTASASGIYGNFGQANYSAAKLGLLGLANTLVIEGRKNNIHCNTIAPNAGSRMTETVMPEDLVEALKPEYVAPLVLWLCHESCEENGGLFEVGAGWIGKLRWERTLGAIVRKRNQPMTPEAVRDNWVKICDFSNASKPKSIQESTGGIIEVLHKIDSEGISQNHTGQVASAD”, for which the “soluble on expression in E. coli” value was “soluble”.
Take “MKKDLSALKEARFNAILDSATILLVENPTASMNEIAEYAGIGIATLHRYVESREKLMLFLGHRAIQLVSDTVNQIPLDEERSENYIPELIEALIPLGDKIYFLGHDASVFNNKELGEAEEKLREPLRRVIELLQQRGYFQQTVSSEWILNTLYALLFHTWEQVHEGNVAKKSAAELVLNTFYYGFKAKDELRGK”: the “soluble on expression in E. coli” value is reported as “not soluble”.
As to “MLQVTGIPDACDNLAPIPMECDAPFLSIKGELPRELNGTLYRNGANPQFVSPNAHWFFGDGMLHAFHLENGRASYRNRWVRTPKWLAEHEAGRPLYGEFNLKLPDAPRSVPDDGNVANTNIVFHAGRLLALEEAHLPMQIERDTLETRCYCDYGGALKGPFTAHPKIDPVTGEMLFFGYNASGPLTRTMSFGAIDASGNVTRLEHFKAPFAAMVHDFIVTEHHVLFPILPLTGSIWRAMRGRPPYAWDPRKGSYVGVMKRSGSTRDVRWFRGEACFVFHVMNAWEDGTRIVADVMQSEEAPLFTHPDGRRTDPEKGRARLCRWSFDLAGNTNAFKRSYLDEISGEFPRIDERRAGLRSGHGWYACASPETPMLGMLTGLVHVDGNGHRRTRYLLPTGDTIGEPVFVPRAADANEAEGWLLAVVWRGCENRSDLAVFNATDIAAGPIALVQLGHRIPDGFHGNWVPAGAAALEHHHHHH”, the “soluble on expression in E. coli” value is reported as “not soluble”.
Take “MNRARDWMRQAERDLEHAQKSLELGHWEWACFAAHQAAEKALKAVYFALGAEAFGHALTHLLAGLHERLNLTPELRRCALVLDRLYIPTRYPDSWEAGAPLDYYGEEEARDALLCAGEILRFGQSVLAGPGETSSGP”: the “soluble on expression in E. coli” value was “soluble”.
Regarding “MMKEVLDAFRKSGEAEGFGHNKMSSSEVASHYNKVLQVGIEGRKESRIFFMRNMNNWVKSQLINDAKQRVNDNGVNNPRVLDLACGKGGDLKKWDIAGAKDVVMADVADVSIQQAEERYKQMFGYKKNNIFTVQFIVADCTKENLEDRIENKDPFDLVSCQFALHYSFVDEASARIFLKNAVGMLKPGGVFIGTLPDADRIVWSMRNGENGQFANEVCKITYENVEELAEGKVPLFGAKFHFSLDEQVNCPEFLAYFPLVKHLLEELDMELLFVHNFAEAINKWLEPGRRLLESMTGLETYPNEKLSGKSDDEYLEAKAKLDAFPEDERIKTMGTLSKSEWEAICMYLVFGFRKKKSEAEKTEEEPATTKPVAESESEQKEVTESEEKEDQEDCEHQEAQTN”, the “soluble on expression in E. coli” value is “soluble”.
For “MQPQKNVTNKIAIHATTATVWDALVNPAKTKVYMFGCETVSDWKVGSELLWRGQHEGEDMVFVKGKILAIKPNKLLTYTVIDPFASYPDIPENYLNVTYKLEEQGPDTILTVTQDGFESAADGEKRYQDVNNKGEGWNPILVQIKALVESIQNLEHHHHHH”, the “soluble on expression in E. coli” value was “soluble”.
“MIYPDETMLYAPVEWHDCSEGYTDIRYEKSTDGIAKITINRPQVRNAFRPLTVKEMIQALADARYDDNVGVIILTGEGDKAFCAGGDQKVRGDYGGYQDDSGVHHLNVLDFQRQIRTCPKPVVAMVAGYSIGGGHVLHMMCDLTIAAENAIFGQTGPKVGSFDGGWGASYMARIVGQKKAREIWFLCRQYDAQQALDMGLVNTVVPLADLEKETVRWCREMLQNSPMALRCLKAALNADCDGQAGLQELAGNATMLFYMTEEGQEGRNAFNQKRQPDFSKFKRNP”: the “soluble on expression in E. coli” value is reported as “not soluble”.
As for “MSLTSTIEELLTAARRRRVFSAAGWSVGTATTTLCRGLLGTTAWDPPATAVTEDSRWDLASMTKPIVAIAVMSLIEDGVLTLDDTIAEHLPDYADTDKARIRVANLLTHTSGIPGRQPLYQWNRARDELLTAIRRLPLLGPPGAQVSYSSPGFILLGLIAESAAGMPLDQLVAERVTRPAGMVDAGFASPPTELAVATEDDPWRGHLVRGEVHDENAVVLGAPAGHAGMFATLVDMEALGRTLCAQGWGAHGRVLTPAGYAAMITPRTDHLPLRRTLGWQGVDAVDATAGDLIGPDGYGHTGFTGTSLWIDPDRGSYVVLLTNRIHPNRENTAISRVRRAVNNIGFALASEGHHHHHH”, the entry is “soluble”.
As for “SDRFTSQSSFVVRSPKSQSSLNGLGAILQGTGFARAQDDIYTVGEYMRSRSSLDELRKILPVREFYETKGDAFSRFNGFGFRGEEEAFYQYYKNQ”, the entry is “not soluble”; as for “MAQLYYKYGTMNSGKTIEILKVAHNYEEQGKPVVIMTSALDTRDGFGIVSSRIGMRREAIPISNDMDIFTFIAQLEEKPYCVLIDESQFLSKQNVYDLARVVDELNVPVMAFGLKNDFQNNLFEGSKHLLLLADKIDEIKTICQYCSKKATMVLRTENGKPVYEGDQIQIGGNETYIPVCRKHYFNPDI”, “not soluble”; as for “MDMDKRSSDLEAALRIVLQQTLNIVLQAQEKLPEANVVPSTPPTSPSTDIGEQMASFWNIPSPNPPATSATSSTSPEEEIPCICFNCWGNVAAAANSKTWKSPNQADFRSAAAPLTEEKSHA”, “not soluble”.
As for “MTAIEQTEAVRPRGTRLPRRARRNQLLGAAQEVFVAQGYHAAAMDDIAERAGVSKPVLYQHFPGKLDLYLALLDQHCEALIQSVRSALASTSDNKQRVRATMDAYFAYVEDDGGAFRLVFESDLTNEPAVRERVDKVTNECAEAICDVIAEDTGLSRAESMLLASGLGGLAQVVARSWLHSDRSVPRDQAVQLLTSLAWRGIAGFPLHGIEQH”, the “soluble on expression in E. coli” value is given as “not soluble”.
With “MGSDKIHHHHHHMDFTEYQEEIIEDVKSCLESLQVQPILFMGAGISQRYIKAPDWEGLLKQLAEICPLIKRHYGYYSQTKGDNKPLIASDFCDFYAEWAWDDGKDRYPETYFEGTTPKDIYIKHEIASILNELSNSVDFSNMEYTEEVQKLRKVKPHAIITTNYDDTLEKIFDNYQAIVGHNVVKVNYSSYGEIMKIHGSSHEVESIVITNEDYVDFYKRKKYISAKLLTYFAEHPLFFFGYSINDENIKAILSDIDEIIAPNNALIPNIYLVSFSKDCEATGSHQKELLIGVGENKSIRIKVIYANDFGWIFDALSSNTPEISVNPKLVRAFLARTYTFASESLVKQELPYDFEMFRDIAEHDDALAKMYGIAELNNGQALNASFPYTMSDLARILDMGSWHYVNQEFEKLRKLTDFNIKASDNNYHVFIKSGKSGVGKYSSEALDLLRKLINGEQFELNP”, the “soluble on expression in E. coli” value is on record as “not soluble”.
“MDGNAPEPRYWEKMRLVAEVLKAVEGPIYIATHVDPDGDAIGSSLGLYRALKALGKEAYWVADPPRFLRFLPKEEEYSDPVEKLPPGATLVALDSAEPSRVVGVPVEGFVINIDHHGTNPRFGHLHVVDPSKAATAQMVKDLIDLLGVEWTAEIATPVLTGILTDTGNFRFANTTPEVLRVAAELLGYGVKLAELTDRLQFRPPSYFRLMGQVLSTVAFHFGGLLVTAHLPEEAGAEEDSDDFVGLIRYVEGSVVSVFLRKREEGVKVSIRSRGGVSAQNIALKLGGGGHVPAAGATLKGLDLDQAYERVLEAVREELTRAGYLLEHHHHHH”: the “soluble on expression in E. coli” value was “not soluble”.
